Assay results from the DeepSol protein solubility set.

test: soluble on expression in E. coli; label from the status in PepcDB or PDB records

Sequence	soluble on expression in E. coli
GSPASGTSLSAAIHRTQLWFHGRISREESQRLIGQQGLVDGLFLVRESQRNPQGFVLSLCHLQKVKHYLILPSEEEGRLYFSMDDGQTRFTDLLQLVEFHQLNRGILPCLLRHCCTRVAL	soluble
MKIFSRLGHVLLICSSLIIAIPAHSADSSTTTKAGVKKTVKKQELSANSALVIDLKTNEIIYSNNPDAVKPIASVTKLMTAIVTLDAKLPMDAKLPITIKDAKEMKGVHSRVKIGSEISRKDMLLLTLMSSENRAAASLAHHYPGGYKAFIKAMNAKAKALGMKNTRFVEPTGLSAKNVSTARDLVVLLKASKKYPLLGKLSATDKKTVTFSKPRYTLDFRNTNRLVHNDNWKIDLTKTGFTNAAGHCLVMRTQMGRRQVAFVVLDTKGKLSPVGDANRLRTWIETGKVTPLSSEAKQYKKQRSQEQIAKISDYKS	not soluble
MSNIYDSANELSRGLRGLPEYKAVKAAKDAIAADAEASKIFTDYLAFQEEIQKLAQTGQMPDASFQAKMEGFGKQIQGNSLLSEFFTKQQQLAIYLSDIEKIVFEPVSELLK	soluble
MRKIIVGSRKSKLALTQTNWFIDQLKALGLPYEFEVKEIVTKGDVILDVTLSKVGGKGLFVKEIEHALLTKEIDMAVHSMKDMPAVLPEGLMIGCTPKRVDPRDAFISKSGASYKELAEGAILGTSSLRRSAQLLAARPDLQVKWIRGNIDTRLRKLKEEDYDAIILATAGLQRMGWDNEVITEHLDETLCVPAVGQGALAIECREDDKDLLQLLAHINDAVTEKTVAAERVFLHKLEGGCQVPIAGYATITENDAIELTALVGSMDGSVLLKETVVGTDPEKVGLEAADRLIKQGAKELILAANKGQQ	not soluble
MYKQLEKLITLTNNDLNLVNRRFGQRTDITSEQLELLRILFNYDRLSQYDLTMKISREQSIVSRWIKKLVLKGYITSQQSSEDLRCKELILTDQARTLISQINNARCELIEARCQCLSEVELDNLNQLLDKLNQRRISL	not soluble
MHHHHHHSSGVDLGTENLYFQSNAMKHIQINPSILSADLARLGDDVKAVLAAGADNIHFDVMDNHYVPNLTFGPMVLKALRDYGITAGMDVHLMVKPVDALIESFAKAGATSIVFHPEASEHIDRSLQLIKSFGIQAGLALNPATGIDCLKYVESNIDRVLIMSVNPGFGGQKFIPAMLDKAKEISKWISSTDRDILLEIDGGVNPYNIAEIAVCGVNAFVAGSAIFNSDSYKQTIDKMRDELNKV	soluble
MIAARQVSKPIADAVLRYGKDHPVFRNKLLLPIGRGLVRFTSRLRMKRLGLGEPISQAPISESAALEQASDFVQQLVLFSYSVGVFAGYYFYTKMTTPESLKIEDYEEFKQQQERAIKELRLQVESLEQRLAAQQKRNFFSQLGFSKENGDESPPKPSQQAPPPEKPSEEKKPATESLKQRFQRISSLPIDAAASLILDDEEYLVVRRGSSVGIELSVNFAARGDRLRYRIPSPKLRESCAQMALKEAACHVIGAKDRSRFRYVNS	not soluble
MNLTPGGNAPVPAQELRVRITSGGQVDASAFRLYADGKVQGDADMVFYGQPRNDDGTVSLVSEGQYSTFTVALNRLKPDVQKIAFTVTCDGGQTVSGLRNLSIDVEQGATGLVSGSVELSGRQEAALILGEFYRRNNDWKFRFVAQGFNGGLKPLAEHFGVNIADEPAPAAPTPPVVTPPPVETKISLSKVSLTKEKPAISLTKRDNFGEIRINLNWHRGSSKSGFAGMFGSKGIDLDLGAFVELQDGYKSVIQALGNAFGDYRDEPYVQLKGDDRTGDVSDGEWLHINGREWKHIREVLIYAFIYEGVPSWDKTDGVVTIHVPDQPPIETRLTEGENRRTLCAIARLVNENGAIKVERINQYFKGQDEMDRAFGWGFRWSAGSK	not soluble
MGSDKIHHHHHHMNCKELQLSPELTQALGEGDVFSRVMALGGEVFRDVPGRKTVRVQLAGQPYFIKQHFGVGWGEIFKNLLAFKVPIVSANTEKQAIEKLGEIGIATTPLAGFGSRGCSPASRQSFLITHDLGDILSLETLADQWMQSPPEPRFKRRLLMEVATLAARLHDSGLNHRDFYICHICLDLPRLRHGDIHLYLIDLHRVGIRETIRPQDRMKDIAALYFSAMNAGLVTRDYLRFLRRYRGKPIRQVMREERDFWQQVQARAIKLYIKLHKVEPGLHQIGGMIG	not soluble
YIDVKRMMYTLIVSFVFSRVVDSVLDGAYAAKGILIVSNHSEEIGQSLMASLERGVTYLNGEGAYSQVEKRVLYTVVSPREIMEVKRIANEIDEKAFVSIINVHEAIGEGFTYAKPSKQRRFKLKQ	not soluble
MGVHSFWDIAGPTARPVRLESLEDKRMAVDASIWIYQFLKAVRDQEGNAVKNSHITGFFRRICKLLYFGIRPVFVFDGGVPVLKRETIRQRKERRQGKRESAKSTARKL	not soluble
MGSDKIHHHHHHMSQLLYDNGTHKCIAFTDLVEGEGIQANQFLIVNNGEGMLLDPGGNLTYKNLLAEMASYFLPAHLDYVFASHEDPDIVASANGWLLITDAKILIANEWTRFLPHFCSKGMTAGRVIGIPAQGMRVNLAGQELFVVPAHYMHSVGNFQVYDPVSKILFSGDLGANLVSGHDAAKVIEGAEAFAAHRAATSMDGFHRRYMGGQKVCRLWTNMARGMDIEWIVPQHGASFKGRETVLAFLDWFEGLESGPDLLTQKDFQFPIPENL	not soluble
MTDKVIATHNGNFHADDVFSIAALKNIFPSFKLIRTRDLEVIGKADIVIDVGGEYDADAGRFDHHQRGGAGERENGIPYSSFGLIWQKYGLAICQGNQEVANSVDAGLVSTIDAIDCGHVEGVAQGISLSQTISMFNPTWQEDSHFDTCFDEAVDFASRVLTRFIASASGGINAKDIVAKAIDNAEDSRVIVLEKYTPWKRTVHALSEEALYMVYPSPSGQWRIQTVPVEPGSFEDRKPLPKQWAGLSDDALKEVTGIDDAMFCHNGLFIAGAESFESTMKMASIALQALEHHHHHH	soluble
MQYKLILNGKTLKGETTTEAVDAATAEKVFKQYANDNGVDGEWTYDDATKTFTVTEGSMAGGAWGRLACYLEFLKKEELKEFQLLLANKAHSRSSSGETPAQPEKTSGMEVASYLVAQYGEQRAWDLALHTWEQMGLRSLCAQAQEGAGHSLEHHHHHH	soluble
MKIAVDAMGGDNAPQAIVEGVMLAKQDFPDIEFQLYGKEAEIKKYITDEKNITIIHTDEKIASDDEPVKAIRRKKTASMVLAAQAVKNGEADAIFSAGNTGALLAAGLFIVGRIKNVERPGLMSTLPVMGEPDKGFDMLDLGANADNKPEHLVQYAVLGSFYAEKVRNVQNPRVGLLNNGTEETKGSELTKKAFELLAADETINFVGNVEARELLNGVADVVVTDGFTGNAVLKSIEGTAMNMMSLLKTAILSEGVKGKMGALLLKNALHGMKDEMDYSKHGGAVLFGLKAPVIKTHGATGPDAVRYTIRQIHTMLETQVVPQLVEYYEGKAE	soluble
MVVGGFGVGKTTMVRSVSEIRPLNTEETMTQAGEAVDDISEVRGKSATTVAFDFGRISLDARNVLYLFGAPGQERFWFLWDRLFSGTLGAVVLVDTRRIDDSWYAIDRLEHHGTPFIVACNDFGGPEHSPEAVREALDLDPRVPLVSCDARSRQSSKQVLITLVEHLQAHYAGPTARPRQEFALEHHHHHH	not soluble
MAEDSNSSESIIVNVTGDDNKSALFGKYDLGKLLGSGAFAKVYQAEDLQNGGESVAIKVVQKKRLKDGLTAHVKREISVMRRLRHPHIVLLSEVLATKTKIYFVMELAKGGELFSRVTSNRFTESLSRKYFRQLISAVRYCHARGVFHRDLKPENLLLDENRDLKVSDFGLSAMKEQIHPDGMLHTLCGTPAYVAPELLLKKGYDGSKADIWSCGVVLFLLNAGYLPFRDPNIMGLYRKIHKAQYKLPDWTSSDLRKLLRRLLEPNPELRITVEEILKDPWFNHGVDPSEIIGIQADDYDLEENGKILNAFDLISSASSSNLSGLFGNFVTPDHCDQFVSDESTAVIMRKVEEVAKQLNLRIAKKKERAIKLEGPHGVANVVVKVRRLTNELVMVEMKNKQRDVGLVWADALRQKLRRLINQPVYKVPDKP	not soluble
MGSDKIHHHHHHVNPLLDSLQPYPFEKLRALFKDVTPNAGLAHISFGIGEPKHPTPALIRDAVVASLGGLSAYPATSGSPALRESIAKWVTQRYNLPPVDPATQVLPVSGSREALFSLAQTVLDPQKNAGGEPAIVLCPNPFYQIYEGAAILAGAQPYFVNSDPARNFACDYSAVPAEIWARTQLLYVCSPGNPTGAVLTLDDWRELFALSDRYGFVIASDECYSEIYFDEAKPPLGGLEAAHKLGRGFERLVMLSSLSKRSNVPGMRSGFVAGDAAILKDFLLYRTYHGAALSTVFQNASIAAWNDEAHVRENRAKYLQKFSTVTPMLAEVLDVRLPDAAFYLWADVSRTGLTDTVFAQRLYADYNVTVLPGSFLARTAHGVNPGRNFVRMALVADVDECTQGAQRIVDFCRALAG	not soluble
YSSRRFEKKKIHFPSRRRRFVDYLINAQRSEKLELNSQQQLGNRHSGSSELVKSESRKKAKSSNQKEKVKPEKRGRATATTGAGPTIDQSLKGPTGTTMASERGMTMTQTIQKEKSIKKKKSEKDERKRAKEVGNEEAAADNQTVTQGNDTTTTQGPSSMFPADLSKKHRLGLQKVKERAVEVPEKKKTKNNE	not soluble
MGSDKIHHHHHHMKRRELLVLGGLSTIAAGMGRQWFQPVSAQAITPLPASDRPLDLRFIAVADTGTGARGQYDVAAAMERYRRANPYKLAVLAGDNIYNNGEIEKIQAVFERPYAPLLKSGVKFRAVLGNHDIRTNNGNDQVRYPGFNMTGRYYQFQEGPVAFFALDTNGNADWNKQLTWLDRALQASNAPWKVVFGHHPIYSSGFYGVNRTLLGRLVPLFKRHGVQLYISGHDHSYERTQPIDGTTYLIVGAGAGLRPVGRSSWTAQSASTLSFAGLEVYGNELRIQTFDKDSRLIDQGQIFA	not soluble
MGSDKIHHHHHHMLTSSWIKQLPLTAITQVTPVGGGDVNQAYRIDTATKPYFLLVQPGYPADFYAGEIAGLKAFDEAQILAPRVIANGQIEGDGFLLLSFLTSGNGSQRDLGRLVAHLHQHHEPNGRFGFDYPYAGTSVSFTNTWTDSWADLFIHQRLDKLAAHLLKKELWQADDEATFQQVRTIISKTLAHHHSDASLLHGDLWGGNYMFTADGQPALIDPAAVYGDRELDIGVTTVFGGFTQDFYTGYQEVYPLDAGYHFRLDFYRLYYLMVHLDKFGMGYAGSVAAVMNQILDHGLTE	not soluble
MEFTDPYTVDSLQCFNGFHYRGYRINQSDTDKVNRLIAIIRQEREKNIGPAAGDIIEYTCRNGDWFQSAHIEEICDGHFKICLSGSIPFCYESGDGVGYNVHEGIWTYPKRAALKPAGIREKQFRTWGHAGKCANGEVYFMACVRAWQYTEPEPLYGRYTTRNWSKYHINRQPDPEHDGEFFYMTEGFTLYSREELDRLTGILHGKLFDGIYSNSLVLWGYHMKWEILTEQEWNETKAEIHISFLGKSPVKIITCDDTHTITVYKKK	not soluble
MQIVKKEKFILKEYTFENGRTIPVQMGYETYGTLNRERSNVILICHYFSATSHAAGKYTAHDEESGWWDGLIGPGKAIDTNQYFVICTDNLCNVQVKNPHVITTGPKSINPKTGDEYAMDFPVFTFLDVARMQCELIKDMGIARLHAVMGPSAGGMIAQQWAVHYPHMVERMIGVITNPQNPIITSVNVAQNAIEAIRLDPSWKGGKYGEEQPMKGLQLANRMMFMNAFDEHFYETTYPRNSIEVEPYEKVSSLTSFEKEINKLTYRSIELVDANSWMYTAKAVLLHDIAHGFSSLEEALSNVEANVLMIPCKQDLLQPSRYNYKMVDLLQKQGKYAEVYEIESINGHMAGVFDIHLFEKKVYEFLNRKVSSFV	not soluble
